T1: EBV gB protein ectodomain (24-683 aa) of the substituted M81 strain gB protein, C-terminal 6×His tag (EBV M81 strain, UniProt P0C762 24-683)
T1 construct: Expressed in 293F cells; also called EBV gB ectodomain
T1 chain: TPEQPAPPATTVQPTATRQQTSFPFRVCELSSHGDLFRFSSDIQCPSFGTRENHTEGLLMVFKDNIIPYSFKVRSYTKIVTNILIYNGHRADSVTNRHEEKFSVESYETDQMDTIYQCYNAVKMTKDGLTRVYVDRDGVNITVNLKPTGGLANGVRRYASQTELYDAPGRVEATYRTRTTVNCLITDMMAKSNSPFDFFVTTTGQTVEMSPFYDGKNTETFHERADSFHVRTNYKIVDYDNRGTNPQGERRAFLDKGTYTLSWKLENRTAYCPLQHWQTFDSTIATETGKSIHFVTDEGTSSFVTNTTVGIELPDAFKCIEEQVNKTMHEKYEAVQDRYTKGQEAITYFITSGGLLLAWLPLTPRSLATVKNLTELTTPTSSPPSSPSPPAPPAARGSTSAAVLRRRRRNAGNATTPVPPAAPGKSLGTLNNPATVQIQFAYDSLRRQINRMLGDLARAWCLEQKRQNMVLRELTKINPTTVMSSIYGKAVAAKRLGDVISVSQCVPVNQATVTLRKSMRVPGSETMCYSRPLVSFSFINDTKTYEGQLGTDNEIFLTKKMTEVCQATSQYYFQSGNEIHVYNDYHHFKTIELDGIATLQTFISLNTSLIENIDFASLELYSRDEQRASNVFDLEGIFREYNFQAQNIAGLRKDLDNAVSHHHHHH

T2: wild-type full-length EBV gB protein expressed on cells (EBV M81 strain, UniProt P0C762 22-857)
T2 construct: also called gB protein expressed by cells; natural gB protein
T2 chain: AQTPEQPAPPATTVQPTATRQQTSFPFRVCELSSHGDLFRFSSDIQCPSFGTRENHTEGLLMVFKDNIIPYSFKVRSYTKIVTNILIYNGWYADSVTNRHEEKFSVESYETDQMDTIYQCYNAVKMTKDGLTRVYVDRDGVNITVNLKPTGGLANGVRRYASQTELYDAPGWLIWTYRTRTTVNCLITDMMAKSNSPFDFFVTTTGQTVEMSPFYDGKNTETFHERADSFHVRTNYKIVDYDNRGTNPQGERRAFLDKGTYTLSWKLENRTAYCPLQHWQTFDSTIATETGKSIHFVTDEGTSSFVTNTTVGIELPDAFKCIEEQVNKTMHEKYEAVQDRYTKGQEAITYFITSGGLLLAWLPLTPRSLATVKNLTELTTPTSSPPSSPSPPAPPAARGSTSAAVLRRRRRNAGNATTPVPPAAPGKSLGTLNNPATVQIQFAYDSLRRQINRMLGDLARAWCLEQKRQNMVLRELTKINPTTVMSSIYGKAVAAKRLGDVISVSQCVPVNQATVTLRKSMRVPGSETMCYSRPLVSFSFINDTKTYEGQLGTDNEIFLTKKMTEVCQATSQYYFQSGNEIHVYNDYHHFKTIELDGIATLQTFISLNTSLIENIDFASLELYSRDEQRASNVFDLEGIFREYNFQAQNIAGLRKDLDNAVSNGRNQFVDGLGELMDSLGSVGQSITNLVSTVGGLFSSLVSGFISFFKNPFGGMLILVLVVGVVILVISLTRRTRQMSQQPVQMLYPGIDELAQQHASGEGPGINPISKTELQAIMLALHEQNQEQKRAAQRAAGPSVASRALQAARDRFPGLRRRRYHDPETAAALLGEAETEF

T3: gB-528~616aa
T3 construct: as f3
T3 HBc149/mut carrier with inserted gB segment: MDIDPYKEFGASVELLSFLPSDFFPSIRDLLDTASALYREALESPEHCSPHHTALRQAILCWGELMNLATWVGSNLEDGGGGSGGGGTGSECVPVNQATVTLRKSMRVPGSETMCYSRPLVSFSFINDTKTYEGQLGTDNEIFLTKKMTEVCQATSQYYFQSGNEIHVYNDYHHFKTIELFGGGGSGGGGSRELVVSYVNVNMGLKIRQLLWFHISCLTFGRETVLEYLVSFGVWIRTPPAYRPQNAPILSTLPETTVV

T4: HBc149 protein chimerized with gB-331˜367aa epitope
T4 construct: also called Recombination protein gB aa331-367 + HBc149/mut; HBc149 chimeric protein
T4 chain: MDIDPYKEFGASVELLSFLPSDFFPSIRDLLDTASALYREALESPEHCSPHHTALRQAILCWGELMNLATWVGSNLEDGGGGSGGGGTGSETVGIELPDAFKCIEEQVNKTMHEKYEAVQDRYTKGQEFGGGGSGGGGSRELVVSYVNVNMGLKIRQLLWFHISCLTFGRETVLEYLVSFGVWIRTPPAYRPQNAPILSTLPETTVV

T5: gB-295~390aa
T5 construct: as f3
T5 HBc149/mut carrier with inserted gB segment: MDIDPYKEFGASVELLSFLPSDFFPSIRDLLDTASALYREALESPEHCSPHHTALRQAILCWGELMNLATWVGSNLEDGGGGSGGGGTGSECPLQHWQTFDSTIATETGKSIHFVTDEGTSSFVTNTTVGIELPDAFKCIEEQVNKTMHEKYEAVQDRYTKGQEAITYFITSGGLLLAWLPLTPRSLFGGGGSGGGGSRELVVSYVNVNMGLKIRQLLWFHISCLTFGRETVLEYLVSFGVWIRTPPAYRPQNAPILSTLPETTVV

B1: rabbit monoclonal antibody 3A3 (antibody, V domains shown)
VH: QSVKESGGRLVTPGTPLTLTCTVSGFSLSSYAMSWVRQAPGKGLEYIGVIYASGSTYYASWAKGRFTISRTATTVDLKITSPTTEDTATYFCGRGVSTNMWGPGTLVTVSS
VL: DLVMTQTPSSVSAAVGGTVTIKCQASQSLGGGLAWYQQKPGQRPKLLIYSASTLESGVPSRFRGSGSGTEFTLTISDLECADAATYYCQSAYGPTSNGLFNAFGGGTKVVIK
notes: Recombinant rabbit monoclonal antibody expressed in 293F cells; also called 3A3 antibody
B2: rabbit monoclonal antibody 3A5 (antibody, V domains shown)
VH: QSVKESGGRLVTPGTPLTLTCTVSGFSLSSYEMGWVRQAPGEGLEWIGTISTGGSSYYASWAKGRFTISRTSTTVDLKMTSLTTADTATYFCARGYGGYGIGAGYFNIWGPGTLVTVSS
VL: ALVMTQTPSSVSEPVGGTVTIKCQASQSISSYLAWYQRKPGQRPKLLIYGTSTLASGVPSRFIGSGSGTDYTLTISDLECDDAATYYCQQGFSTSNVYNSFGGGTKVDIK
notes: Recombinant rabbit monoclonal antibody expressed in 293F cells; also called 3A5 antibody

Columns and labels:
[1] = target: gB protein on EBV virions used in the neutralization models (Epstein-Barr virus); test: cell-based or functional assay
[2] = target: T1, EBV gB protein ectodomain (24-683 aa) …; test: indirect ELISA, coated gB ectodomain
[3] = target: T1, EBV gB protein ectodomain (24-683 aa) …; test: SPR, Biacore 8K, antibody captured on Protein A chip, gB as analyte
[4] = target: T2, wild-type full-length EBV gB protein …; test: immunofluorescence on MDCK cells transfected with full-length wild-type gB
gB-528~616aa = target: T3, gB-528~616aa; test: Western blot of gB segments displayed on HBc149, reduced and heated
[5] = target: T1, EBV gB protein ectodomain (24-683 aa) …; test: SPR (Biacore 8K): antibody captured on a Protein A chip, EBV-gB as analyte at 1.5625-200 nM
[6] = target: T4, HBc149 protein chimerized with …; test: indirect ELISA on the coated HBc149 protein chimerized with gB-331~367aa, antibody titrated
gB-295~390aa = target: T5, gB-295~390aa; test: Western blot of gB segments displayed on HBc149, reduced and heated
[7] = target: T1, EBV gB protein ectodomain (24-683 aa) …; test: indirect ELISA on coated wild-type gB ectodomain, 3A5 titrated [right panel]

Row | Binder | IC50 on the B cell infection model [1] | IC50 on the epithelial cell infection model [1] | EC50 [2] | Kd [3] | binding result [4] | binding result (gB-528~616aa) | koff [5] | kon [5] | binding result [6] | binding result (gB-295~390aa) | EC50 (read off the curve) [7]
1 | B1 | 2.97 µg/mL | 0.07 µg/mL | 0.007 µg/mL | 863 pM | binds | no binding (tested: 1 µg/mL) | 0.000162 s⁻¹ | 188000 M⁻¹ s⁻¹ | binds | – | –
2 | B2 | 4.9 µg/mL | 0.31 µg/mL | 0.0052 µg/mL | 411 pM | binds | – | 0.000266 s⁻¹ | 648000 M⁻¹ s⁻¹ | – | no binding (tested: 1 µg/mL) | ~0.005 µg/mL

Reference: patent US20240123058A1 (XIAMEN UNIVERSITY, published 2024)
